Experimental data from US12152060B2, “Interleukin-2 variants and methods of uses thereof” (Cugene Inc, priority 2018, dated 2024).

Columns and labels:
[1] = target: T1, non-covalent complex of IL-2Rβ-ECD (NP_000869) and γc-ECD (NP_000197) (Homo sapiens, UniProt P14784+P31785); experiment: ELISA binding to IL-2Rβ and γc complex
T1 construct: non-covalent complex of IL-2Rβ-ECD (NP_000869) and γc-ECD (NP_000197)
T1 sequence (P14784 27-240 limits assumed): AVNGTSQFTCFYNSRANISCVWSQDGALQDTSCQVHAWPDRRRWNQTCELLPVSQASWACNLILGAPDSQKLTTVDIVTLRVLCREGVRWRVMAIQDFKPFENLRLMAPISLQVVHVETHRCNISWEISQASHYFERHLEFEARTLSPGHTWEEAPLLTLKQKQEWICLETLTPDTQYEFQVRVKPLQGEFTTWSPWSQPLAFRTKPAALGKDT
T1 sequence (P31785 23-262 limits assumed): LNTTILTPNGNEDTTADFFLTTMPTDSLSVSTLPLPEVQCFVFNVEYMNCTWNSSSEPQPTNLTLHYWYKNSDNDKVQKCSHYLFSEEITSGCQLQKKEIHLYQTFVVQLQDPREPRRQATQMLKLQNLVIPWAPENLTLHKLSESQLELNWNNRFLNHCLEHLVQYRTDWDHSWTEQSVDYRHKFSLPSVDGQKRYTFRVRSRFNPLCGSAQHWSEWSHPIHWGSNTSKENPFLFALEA
Description: Briefly, non-covalent complex of IL-2Rβ-ECD (NP_000869) and γc-ECD (NP_000197) through heterodimeric Fc chains was coated onto the wells of Nunc Maxisorp 96-well microplates at 2 μg/well. After overnight incubation at 4° C. and blocking with superblock (ThermoFisher), 3-fold serial dilutions of IL-2 Fc fusion proteins starting at either 100 or 270 nM were added to each well at 100 μl/well. Following a one-hour incubation at room temperature, biotin mouse anti-human IL-2 Ab (BD BioSciences) at 1 μg/ml was added to each well followed by incubation with HRP-Avidin (ThermoFisher) at 1 μg/ml for 1 hour. Wells were thoroughly aspirated and washed three times with PBS/0.05% Tween-20 following each step. Finally, 100 μl TMB substrate was added to each well; the plate was developed at room temperature in the dark for 10 minutes, and 100 μl/well of stop solution (2N Sulfuric acid, Ricca Chemical) was added. Absorbance was determined at 450 nm; curves were fit using Prism software (GraphPad) and illustrated in FIG. 11E.

[2] = system: Treg cells in blood; experiment: Pharmacodynamics study in mice following repeated administration (Q3D); format: in vivo, mouse; conditions: 0.3 mg/kg s.c. Q3D x3; compared to P-0531 and Benchmark-1
Description: Female Balb/C mice (7-week old) were acclimated in house for 5-7 days before the study. Vehicle (PBS), 0.3 mg/kg of P-0511, P-0512, P-0531, or Benchmark-1 compound were subcutaneously administered to mice (n=5/group) on days 0, 3, and 6. On days 3 and 9, three days after the first injection and multiple (3) injections, respectively, peripheral blood was collected. Based on earlier in vivo experiments, Treg cell activation, proliferation, and expansion were expected to peak on day 3, and thus three days post injection was selected for data collection and analysis. Changes in blood lymphocyte activation, proliferation, and expansion were measured by flow cytometry. P-0531 is the S125I equivalent of the wild type IL-2 fusion protein. The Benchmark-1 contains V91K mutation.

EC50, binding to IL-2Rβ and γc complex (ELISA) [1]: did not show appreciable binding
Substance: P-0511: Fc fusion protein of IL-2 variant L19H/S125I/Q126E; SEQ ID NO: 198
Treg cell counts, fold changes relative to PBS and Treg/Tconv ratio [2]: superior capabilities to sustain Treg pool
